# Test results reported in patent publication US20170158755A1 (PROTHENA BIOSCIENCES, published 2017).
# T1: LGde2, human LAMA4 G domain with LG2 deleted, displayed on 293 cells (human, UniProt Q16363 830-1821, limits assumed)
# T1 construct: pDisplay construct on 293 cells; vector tags and anchor not written here; also called LGde2 (LG13)
# T1 sequence: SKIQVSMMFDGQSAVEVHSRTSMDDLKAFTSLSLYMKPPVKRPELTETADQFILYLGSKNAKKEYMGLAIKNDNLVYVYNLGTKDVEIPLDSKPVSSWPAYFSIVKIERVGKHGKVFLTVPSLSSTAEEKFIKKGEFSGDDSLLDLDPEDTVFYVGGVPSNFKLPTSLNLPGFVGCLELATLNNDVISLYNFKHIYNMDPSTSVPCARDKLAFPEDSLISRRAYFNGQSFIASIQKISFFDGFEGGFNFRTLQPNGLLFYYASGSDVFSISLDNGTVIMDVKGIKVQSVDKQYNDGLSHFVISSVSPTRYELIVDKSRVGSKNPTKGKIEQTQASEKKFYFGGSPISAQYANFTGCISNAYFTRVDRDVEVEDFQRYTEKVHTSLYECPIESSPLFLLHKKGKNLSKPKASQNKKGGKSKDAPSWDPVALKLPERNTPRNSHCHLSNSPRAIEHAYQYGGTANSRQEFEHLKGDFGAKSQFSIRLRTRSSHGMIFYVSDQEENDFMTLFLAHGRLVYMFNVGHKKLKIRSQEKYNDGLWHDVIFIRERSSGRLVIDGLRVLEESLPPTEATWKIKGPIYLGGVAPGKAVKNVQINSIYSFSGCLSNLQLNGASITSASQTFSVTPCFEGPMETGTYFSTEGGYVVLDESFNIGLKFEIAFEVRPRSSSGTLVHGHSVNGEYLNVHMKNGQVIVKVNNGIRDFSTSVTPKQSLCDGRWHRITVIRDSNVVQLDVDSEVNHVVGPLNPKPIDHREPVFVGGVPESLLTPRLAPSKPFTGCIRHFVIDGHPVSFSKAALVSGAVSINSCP
# T2: LGde3, human LAMA4 G domain with LG3 deleted, displayed on 293 cells (human, UniProt Q16363 830-1821, limits assumed)
# T2 construct: pDisplay construct on 293 cells; vector tags and anchor not written here; also called LGde3 (LG12); LGde3 (LG23)
# T2 sequence: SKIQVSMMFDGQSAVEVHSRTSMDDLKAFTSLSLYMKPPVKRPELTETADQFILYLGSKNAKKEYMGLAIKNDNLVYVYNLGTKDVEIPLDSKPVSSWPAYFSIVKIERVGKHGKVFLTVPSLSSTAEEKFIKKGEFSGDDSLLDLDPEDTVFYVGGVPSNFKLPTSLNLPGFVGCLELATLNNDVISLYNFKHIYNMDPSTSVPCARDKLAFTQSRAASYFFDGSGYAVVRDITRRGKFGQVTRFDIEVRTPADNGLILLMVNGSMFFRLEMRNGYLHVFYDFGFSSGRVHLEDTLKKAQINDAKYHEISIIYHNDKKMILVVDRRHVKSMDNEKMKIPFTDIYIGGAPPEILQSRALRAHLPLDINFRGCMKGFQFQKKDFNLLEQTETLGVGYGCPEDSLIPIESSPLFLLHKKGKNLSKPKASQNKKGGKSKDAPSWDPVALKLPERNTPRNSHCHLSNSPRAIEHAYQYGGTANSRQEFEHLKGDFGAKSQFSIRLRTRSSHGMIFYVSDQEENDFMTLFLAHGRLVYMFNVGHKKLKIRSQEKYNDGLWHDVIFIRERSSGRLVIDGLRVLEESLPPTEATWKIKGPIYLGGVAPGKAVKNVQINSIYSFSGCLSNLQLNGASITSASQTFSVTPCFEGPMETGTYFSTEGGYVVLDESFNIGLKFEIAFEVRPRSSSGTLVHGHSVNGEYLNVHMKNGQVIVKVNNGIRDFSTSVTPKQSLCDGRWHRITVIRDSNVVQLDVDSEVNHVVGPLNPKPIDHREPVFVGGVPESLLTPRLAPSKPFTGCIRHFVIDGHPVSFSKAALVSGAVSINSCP
# Legend:
# [1] = target: T1, LGde2, human LAMA4 G domain with LG2 …; experiment: flow cytometry on 293 cells displaying LAMA4 G-domain variants; % binding
# Excerpt: (§1) LGde1 has a full-length G domain (i.e., LG1-5) with LG1 deleted, LGde2 has a full-length G domain with LG2 deleted, and LGde3 has a full-length G domain with LG3 deleted. Recombinant MCAM-Fc protein was able to specifically bind 293 cells expressing LAMA4 variants LG1-5, LG1-3, and LGde 1 (LG23), but not 293 cells expressing LAMA 4 variants LG4-5, LGde2 (LG13), or LGde3 (LG12).
# [2] = target: T2, LGde3, human LAMA4 G domain with LG3 …; experiment: as above
# Excerpt: as §1
binding result [1],binding result [2],Binder
no binding,no binding,"mouse monoclonal antibody 1C1 (antibody, V domains shown, version 1 is written here) VH: QVQLQQSGAELARPGASVKLSCKASGYTFTNYGISWVKQRTGQGLEWIGAIYPRSGNTYYNEKFKGKATLTADKSSSTAYMELRSLTSEDSAVYFCARERDYGSSYALDYWGQGTSVTVSS VL: DIVMTQSQKFMSTSVGDRVSVTCKASHNVGTNVAWYQQKPGQSPKPLIYSASYRYSGVPDRFTGSGSGTDFTLTISNVQSEDLADYFCQQFNNYPYTFGGGTKLEIKR"
no binding,no binding,"mouse monoclonal antibody 19C12 (antibody, V domains shown, Mouse hybridoma antibody; Mouse IgG2b was used as its isotype control; also called m19C12) VH: QVQLQQSGAELVKPGASVKISCKASGYAFSTYWMNWVKQRPGEGLEWIGQIYPGDGDTNYNGKFKGKATLTADKSSSTAYMQLSSLTSEDSAVYFCARSDGYYDYWGQGTTLTVSS VL: NIVLTQSPASLAVSLGQRATISCRASESVDSYGTSFMHWYQQKPGQPPKLLICLASSLESGVPARFSGSGSRTDFTLTIDPVEADDAATYYCQQNNEDPPTFGAGTKLELKR"
